According to a protein production outcome set (Wang et al. 2014):

Experiment: label from the status in PepcDB records

| Sequence | protein production |
| --- | --- |
| SGGDVNEAYRVETDTDTFFLLVQRGRKESFYAAEIAGLNEFERAGITAPRVIASGEVNGDVYLVMTYLEEGASGSQRQLGQLVAQLHSQQQEEGKFGFSLPYEGGDISFDNHWQDDWRTIFVDKRLDHLKEELLNRGLWDANDIKVYDKVRSQIVEELEKHQSKPSLLHGDLWGGNYMFLKDGRPALFDPAPLYGDREFDIGITTVFGGFTSEFYDAYNKHYPLAKGASYRLEFYRLYLLMV | failed |
| MELQLAIDLLNKEEAAKLAQKVEEYVDIVEIGTPIVINEGLPAVQHLNENINNAKVLADLKIMDAADYEVSQAVKYGADIVTILGVAEDASIKAAVEEAHKHGKALLVDMIAVQNLEQRAKELDEMGADYIAVHTGYDLQAEGKSPLDSLRTVKSVIKNSKVAVAGGIKPDTIKDIVAEDPDLVIVGGGIANADDPVEAAKQCRVAIEGK | failed |
| MAKKPAAHATKPKPWTEMATHLVDVAMGRKPADLVIRNGRWVNVHSGEIIAGTDIAIAGGRFAYCGPNASHAIGQGTKVVDAGGRYLVPGLCDAHMHVESGMVTVTEFCRAVIPHGTTSMFIDPHEIANVLGLPGVRLMHDEAVAMPINVHVQMPSCVPSAPGLEHAGAELTVADVAEAMTWENIIGLGEVMNFPGVAANDPVMSGEIAATVRAGKTVGGHYASRDLGLPFHGYVAGGPEDDHEGTRAEDAIARVRQGMKAMLRLGSAWYDVASQIKAVTEGGIDPRNFILCTDDSHSGTLVHEGHMDRVVRHAIQQGLKPVTAIQMATINTAQHFRLEREIGSIAPGRLADLLIVSDLAAMTIDEVYARGVRLAKGGKLDIDIPAYDYPKTAKNTVKLGKKLRAGDFDITAPKGANEVRVRVIGVIENQAPTRALEADLPVEDGLVAMDRRNDVCQIALVERHRGTGGVTNAFVSGFGYMGDCAMASSVAHDAHHIICVGTNKQDMALAVNRLGQVGGGVVLFSKGKELALVEMPIAGLMSDERAEIVAAKAEKLTEAMRKMGCSLNNAYMQHSLLALVVIPELRISDVGLIDVTTFQKVDLFV | failed |
| MLMHATMAALAVFICFAGNYLTGQSMMERPLVVGLVTGILMGDMKTGVLMGASLEAIFLGNVNIGGVIAAEPVTATTLATTFAIISNVEQKAAMTLAVPIGMLAAFVVMFLKNVFMNIFAPSLDKAAREGNQKMVVTLHYGTWIIYYLIIASISFIGILAGSGPVNLFVESIPQNLMNGLSAAGGLLPAVGFAMLMKLLWDNKLAVFYILGFVLTAYLQLPAVAVAVIGTVICVVSAQRDVEFRDILKRKPAASSAVEGSAKEIEEEDFFA | failed |
| MDVDVDVDVEMDMDMDMYVALVEVEVEVFLLRTQILTESRKGRMITNMKKPNGNVTNVCDRCGGNGHWFHTCRIPKYLVELYKQSLKQDGKNTETNLVYEKGEDDTTHMELDDFLTHDGNIDS | failed |
| MSTYTARLGGRTHSFPSLAALLAAASPERSGDRLAGLAADSAEARVAARWALAEVPLARFLAEPVIPYEDDDVTRLIVDTHDARAFAPVAGLCVGEFREWLLSDAADAGSLAALAPGLTPEMVAAVSKLMGNADLVAVARKARVVTAFRSTIGLPGRLATRLQPNHPTDDPAGVAAALLDGLLLGSGDAVIGINPATDSPKAVRDLLELLDGVIRRYAIPTQSCVLCHVTTSIDLMERGAPVDLVFQSIAGTQAANASFGVTLGLLDEAYDAARGLGRGTAGQNALYFETGQGSALSANAHHGVDQQTVEARAYAVARRYDPLLVNTVVGFIGPEYLYDGRQILRAALEDHFCGKLLGLPMGLDICYTNHADADDDDIATMLTMLGVAGASFVICTPGGDDIMLNYQSASYHDALYLREVLGLRPAPEFEDWLSRIGLLDDAGAIRDVTGTAHPLTAIGRELAA | failed |
| MCCCVQFLMSFSSVPSAMPAIDPDALESQVAQRLDPHGSDGVQSALSGVVDLEALEERRYGEVLGAIDQRLTQSRYSLLSMVVAGIYFGLLVGLWLVDGSTWSRIALWLAPTLLVAVYGLYATHQTVRQIRHLSETRALLQILMNGPSADG | failed |
| MAGLVQKFKQMWTPPEDEYDYDFEEMDMDDEEVMDEISSSSYEEEEAYQEPQRESRRSSAPQSGNKVVNIHAAAQLQVVLFKPERFGDETRSVADELIKMHTVVLNLENTSKDVSRRILDFLSGVAYANNGKIKRVSTATFIITPYNVDLTGDDLMDEIESSSMYL | failed |
| MATNLKSTAKLVKPIQYDEVIEVERIFADPAFIEQHRQRILASFKDAKESALYHELTHIVIKDNLFSCAMNAIVGYFEFNIDEAELKNVMEGLKRDVIQGAEDNTVQAIAEKIIKKALVFNHLQKEWKVEITDEVVKNVISLYYEKTNQSVREYLDDKQKFEGVRTALLEERMVLETINHFKFHFNLTGQLPN | not failed |
| MNRSVRLITIALLLAALASLTYAVVRPFLVSIGWAVFVSYVAWPLHAWSQRRFEGRKTLSALVTTALLGSVVLAPLIWLAVLLQGEVSELIRSLPDWLEQKPRLPDFVSHIPYFGNELQAVVDQFEDLHGLLKRHAPEWVRRLGSPVLGIMTTLVQNAAVLFMTLFTLFFLFRDGLQLATDVRRVFTRVLGERLKGYFATIEATVKAVLYGIVLTALAQGFLAGLGYWIVGVKAPIVLGIATTLIAMIPFGTPFAWGSVSIWLLLQGETWAGVSLALWGTLVISWIDNIIRPLVISSATHIPFVLVMFGVLGGLASFGFIGLVLGPVILAMALAVWREWLQQVREAGLRGEDGSGTGPGERR | failed |
| MIALLPAYLLWVVLSLLEYNRQAREQIQDDIFREREYASVALRGISDAVVSIDTEQVIQYLNPAAEALLGLPAAQLLQRRLKQVAPLHYEFSRQPVQDPIEQAIATQQVVHLAQNCYLKRHNGEKLLVEGAVAPLLGRNGQLIGSVLTFRDTAPIRRRMLAALEASESRLRQHELELARVTRINTMGEMASGIAHEINQPLSAIMSYCQAGLSLLEDDELDMAMLRRALTSSVSQADRAGRIIHRLREFVTQKNQQLAPVQLNQAVHNALSLLDYELHDHDIHIEQNFAPELPLVYADTIQLEQVVLNLARNAVEAMEPTRPWGRLSITTRRQGERVQLIISDNGCGIPPDKLDRIFDPFFSTKPNGMGLGLAICQTAVEAFGGKLIAGNKPGSGAEFIIDLPCAPRDMAVPSGVEA | failed |
| MMRAKVNQGINLNDYNGVWVIGEQREGKINPVTIELIGEGRKLADQLGKELAVVIAGYEVEKEVKELLHYSVDKVYYINDPLLKDFTTDGYAISIANLIERKKPEVVLVGATSIGRDIAPRIAGKVGTGLTADCTKLEIDSTDNKLLQTRPAFGGNLMATIVCPKNRPQMSTVRPGVMAKAVRNESETGILEVVTPELTEKMIRTRLVEIL | failed |
| MKSLIIGANGGVGQHLVRKLKARDVDFTAGVRKEEQVEALKADGIDATYIDVAKQSIDELIELFKSYDQILFSVGSGGSTGDDQTIIVDLDGAVKAIKASEQIDHQHFIMVSTYDSRREAFDASGDLKPYTIAKHYADDYLRHANLKYTIVHPGALTNEHETQQFNMSAQFENVQNPSITREDVAEVLVSVLTDEVLQGHEFQIINGDLSLLDATTKYLEE | failed |
| MTKKKAHKPGSATIALNKRARHEYFIEEEFEAGLALQGWEVKSLRAGKANISDSYVLLRDGEAFLFGANITPMAVASTHVVCDPTRTRKLLLNQRELDSLYGRVNREGYTVVALSLYWKNAWCKVKIGVAKGKKQHDKRSDIKEREWQVDKARIMKNAHR | not failed |
| MQAGPSAAVENKIITLVESILAQNGIAGGIERDTTFADAGLTSMEMVNLMLAVEAEFDMTLPQSDITPENFTSAATVAQLVSRRQHAQAALEHHHHHH | not failed |
| MDFECQFVCELKELAPVPALLIRTQTTMSELGSLFEAGYHDILQLLAGQGKSPSGPPFARYFGMSAGTFEVEFGFPVEGGVEGSGRVVTGLTPSGKAASSLYIGPYGEIEAVYDALMKWVDDNGFDLSGEAYEIYLDNPLEHHHHHH | failed |
| MPPELNWQEIDTVLLDMDGTLLDLEFDSHFWLKQVPETLSQRRGISLEQAHKIIHDEYLAVQHTLNWYCFDYWSERLDLDIYAMTTQAGNRVRLRQDTQPFLASLRERGLQTILLTNAHPHSLAVKIEHTALDQHLDLLLSTHTFGYPKEDQRLWQAVTQHTGLNPARTLFVDDSEKILDAARTFGIRYCLGIENPDSSCADKAFHSHPAINDYRKLLPALELRK | failed |
| HQEIKGRKTLATPAVRRLAMENNIKLSEVVGSGKDGRILKEDILNYLEKQTGAILPP | not failed |
| MCLGMAGEHMAPNSKHLSLHMPVDFIDALAQAESIDEILKVVATWFMEMFVADRASITFPVNDSHLRVVALEGNRVIDVDAPVPIHGTMVGRVFSRGQAEICDDLAASTDLDCLILASRGLGSCLDAPLRSGRDCYGTINVGRRDRNGFTLADMRKIEALAMWIATLIRVHRQVERLTHLSRTDPLTQIMNRRAFTESFQTRRLEGERRRAEVGTGLGFAVVDIDHFKQINDTYGHDVGDVVLAFVGKMMNEFFRESDCVARFGGEEFCVLMQDVDEGGMQRLLERFRVALGDCVVTHSAGTVSITASIGAVLVKTSVAGIDRAFRSADLALYKAKADGRNRVRIAPSAEQSHAGNPANRLCYPG | failed |
| MYIMNIFITDFYHRNDLLDKAEAMIANHWPAFMMGTSVDDSYWERLYDVPFSHYQFMAVLKTQTEEKVIGVINSIALPWQTNSLNDLPDEGWDRVFQLGMEAEEQQLPCHLISALSVTIDHHYRGKGIAQRLINTLKEHAKKQGYLGVAVPVRPTLKHCYPLHSFAEYCQWKNDNDEPFDPWIRTHWRL | failed |
| MHIKSAIIVVSDRISTGTRENKALPLLQRLMSDELQDYSYELISEVVVPEGYDTVVEAIATALKQGARFIITAGGTGIRAKNQTPEATASFIHTRCEGLEQQILIHGSTHTHLAGLSRGIVGVTGRDDHAALIVNAPSSSGGITDTWAVISPVIPNIFEGLDAS | not failed |
| MTLEIRPAVPADAEQILAFIIELADYERARHEVVTDVEGIRRSLFAEGSPTRALMCLSEGRPIGYAVYFYSYSTWLGRNGIYLEDLYVTPEYRGVGAGRRLLRELAREAVANDCGRLEWSVLDWNQPAIDFYRSIGALPQDEWVRYRLDGEALRKMAE | not failed |
| YLDLWQTQDAKIRAKLAAVFQAEQNLNEAAIAYCLARALPEETAIFFANSMVVRYAEFFWQLNDQQILPYFNRGANGIDGTLSTALGIAENHSPAVLLTGDLALLHDINGFLTLSKFTGSLTIIVINNQGGGIFEMLPIAEEKDIFEDYFATPQTVEFSKVCDLYGIEYQAIQTKADLMQTCAILPPRGVRLLEVKTNRNQAMTWLKDLFQ | failed |
| HRSDPQIAICLDCLRNNGQSGDNVVKGLMKKFIRCSTRVTVGTIKKFLSLKLKLPSSYELDVLCNGEIMGKDHTMEFIYMTRWRLRGENFRCLNCSASQVCSQDGPLYQSYPMVLQYR | failed |
| MSENLAITIATIVVKLFAIIDPFSVLPFLLAIYEEANRDSQEKVSWNYMINKITIAILILLTLFSLIGRPLLDFLGLSAQALQIAGGVLLVYLGIDTMGGFQQLRFIRSLREAIVTPIATPLLVGPGTMTALISLSVDYNPLELVISSGIVTLLVYLSLLSGPYLVKILGQTGTVAAGRFTAIIIAAFGVQLILSGISQLNFK | failed |
| MEKKFLDILVCPVTKGRLEYHQDKQELWSRQAKLAYPIKDGIPYMLENEARALSEEELKALEHHHHHH | not failed |
| RIGIVVAAHGNSTASSMVQVVSQLLNVDNLKAVDMPLDMPPKEALRKIVEAVGEVNEENGVLLLVDMGSLSTFSEEIVRQTGIDVRTVDMVTTPIVLEAARKTALIDTQLETLHESLKNFHGYADIRQSETKQ | not failed |
| KEGVLCLNTKGQITYANSQALKLLGGSLEELYGKTPQHYFTLENTEGKGMGELLERVLCGESTLQEGSGTLYKKERFLAHVEFTLSPIIDKG | failed |
